According to the DeepSol protein solubility set:

Assay: soluble on expression in E. coli; label from the status in PepcDB or PDB records
With “MPLNHYQQEVGPSLADTSPGKMPDVALLEGRYCSVEHLTVAEHYEDILDFYFTNQILSDWTYMYADPFESEEAVRQCLEDYEQSQNPYFFAIRDKASGKVLGTFSLMAITPKNRSVEMGRVILAPALQKTRAATEAQYLLMKYVFEDLNYRRYEWKCDKSQPPFCQCSHSFRVHL” the “soluble on expression in E. coli” value was “not soluble”. In the case of “MNLDDIESLSEQIARHIGEQIITGELVEGERIQELRIAKELDVSRGSVREALLLLERTHLIEIFPRRGAIVSEMSSQQVKALFDSSVLVLGHIVQKISESWRVHEAEQLQHLIEQLNEHVKAGDTEKFYDGIFEYLAQQHDMVMNAYLMKFYKELLPSLRRSYFLTLNTSRRELQEALALFKLVTDAILIRKSHQATLFMEDFCRHLRNLVLESLTRMKQIELAWARRSRRSSNR”, the “soluble on expression in E. coli” value is reported as “not soluble”. In the case of “MGHHHHHHSHMTNTNEAKPVNVLSAEVMITTAFQDADPMGVVYHGNYFRFFEKARHEMLEKIGYSYRDMMASGYVWPIIDTRVKYVKSIPYDHKIRVEATLTEWENRMRVDYVIYDAETNVRMTKAHTMQVAVSIETEEMCFVSPRIFTDKVEAYHNA”, the “soluble on expression in E. coli” value is reported as “soluble”. In the case of “MAAKPVLYYFNGRGKMESIRWLLAAAGVEFEEVFLETREQYEKLLQSGILMFQQVPMVEIDGMKLVQTRAILNYIAGKYNLYGKDLKERALIDMYVGGTDDLMGFLLSFPFLSAEDKVKQCAFVVEKATSRYFPAYEKVLKDHGQDFLVGNRLSWADIHLLEAILMVEEKKSDALSGFPLLQAFKKRISSIPTIKKFLAPGSKRKPISDDKYVETVRRVLRMYYDVKPH”, the “soluble on expression in E. coli” value is reported as “soluble”. With “PVDINAATHTIVRGDTVYNISKRYHISQDDFRAWNGMTDNTLSIGQIVKVKPAGYAAPKAAAVKSRPAVPAAAQPPVQSAPVDINAATHTIVRGDTVYNISKRYHISQDDFRAWNGMTDNMLSIGQIVKVKPAGYAAPKTAAVESRPAVPAAVQTPVKPAAQPPVQSAPQPAAPAAENKAVPAPAPQSPAASPSGTRSVGGIVWQRPTQGKVVADF” the “soluble on expression in E. coli” value was “not soluble”. In the case of “YQQDQVVKEDNIEAVGKKLHKYNTQFQEKSREYDRLYEEYTRTSQEIQMKRTAIEAFNETIKIFEEQCQTQERYSKEYIEKFKREGNEKEIQRIMHNYDKLKSRISEIIDSRRRLEEDLKKQAAEYREIDKRMNSIKPDLIQLRKTRDQYLMWLTQKGVRQKKLNEWLGN”, the “soluble on expression in E. coli” value is reported as “soluble”. For “ENRDCYSLYRMNPADGKIQQLEVSEDLVNSFSLAQNAPVMVYYGQSASNSDRLYTMNTKKMKSSLLEDLSKDILKDVELGECKAWSFTNSRGDTIYGRYYLPPHFDANRKYPMIVNYYGGCSPVSRNFESRYPHHAYAALGYVVYVIEPSGATGFGQEFSARHVNTAGEGVAQDIIEGTKQFCKEHAFVNDKKIGCIGASYGGFMTQYLQTQTDIFAAAISHAGISDHTSYWGEGYWGYSYSEVSMANSYPWSNPDLFVKQSPLFNADKIHTPLLFLHGDADVNVPVGESIQMFTALKLLGRETAFVAVTGQDHHIVDYGKRIQWQNTIFAWFAKWLQ”, the “soluble on expression in E. coli” value was “not soluble”. With “MDVKMKGIVRVVPYDPEWKTEFLKIKAMIVDCAGDLIIDVVHVGSTAIEGLASKPIIDIDVVIDSYYVFPAVKDRLAKIGFEHEGNLGVEGREAFKRTFVDDFMPYHLYICPKDGKGYLEHIAFRNYLRDHPEAVKAYGELKMRLAEQFRTDITSYVNAKREFVQNVLKKINS” the “soluble on expression in E. coli” value was “soluble”. In the case of “MAYKSLLTVATSPERVEPAITVASRLALSSDAHLDVLALGIDGTQVAYYNMGGTAVVLQMALERAEQEAQAVEKAAAAALSAQPAMLRASVESAVAQMGGLAGLVALRSRFADLVVLSRPYGKGRGAETEAVVEAALFEGQAPVLVVPDDPALSERFGHRIVIAWDQSREALTAVRKAMPFLLRADNVDIVIVDPAAHGAERSDPGGALCQMLVRHGVRAEVSVLAKTMPRISDVIARHVRDQDADLLVMGAYGHSRFREAILGGATRDMLELAEVPVLMAH”, the “soluble on expression in E. coli” value is reported as “not soluble”. In the case of “SDEDGLPLMGSGIDLTKVPAIQQKRTVAFLNQFVVHTVQFLNRFSAVCEEKLADLSLRIQQIETTLNILDAKLSSIPGLEDVTVEVSPLNVTAVTNGSHSETTSEQTQQNSTQDSGAQESEAPSENVLTVAKDPRYARYRKMVQVGVPVMAIRDKMISEGLDPELLEKPDAPVPNGESKRAVEESSDSDSSFSD”, the “soluble on expression in E. coli” value is reported as “soluble”. For “RRVADEIVISHPELADEVDTVCNKIQAGKPMPESLRELVVRTGLEELMGLVSMLSHASRIGGSLVNSLREYTEDYRDKRQQAAEEIAAKIPVK”, the “soluble on expression in E. coli” value was “not soluble”. For “MTQTNNRLFDEIGRLMNDAAGAAQGVKREIDGVVRSQAEKILRDLDLVKREEFEAFKEMVRLTREENEALKARIAALEARQGGGSEPPTALA”, the “soluble on expression in E. coli” value was “not soluble”. For “MAHHHHHHMADRADHYINQLNDAYALKVGGIYNHSTLASSNHNKAHTFGSMPHALIQMFEGDVVKAVEAYHKTFPEDDLYALVDFHNDVISDSLACLKAFKNKLKAVRIDTSKALIDKMFSEGEAEYGVTQNQVKRLREALDANGGKHVKITVSSGFNAKRIKEFEDENTPVDTYGVGASLLKI”, the “soluble on expression in E. coli” value was “soluble”. With “MGVLQATVLWAGPIPRVGNPPNWTSPSSSGLLFFYFFFTSTSDFTMEAPPAPKKARRSEVSRMQDESVLCDDDEEDSPFTLYFVDLPNEPTVKEIRNLEELFKTAKAVGIMPEWIDSDALEDLQKSEDFFVLPCFRGKLFRKLQARKLKVYGPPIVLESIEDGKQLPQWNHPVYSSVFQDVKISFTGLNLTKKQELYEKIGWMCGVVGDALYHETTHLVTEKAEQTEKYKAAVNNSIKLMRIGWIDDLWETSQTTMGRFSALSRDSVNSYALRVFEGLEMAITSIDGADRTNFIQLIEDHGGKVPGTMSKTRFFFSVFHYKICSFLGALLSIQMMLPEKAFYRKYHPKYLTADHIRSSTPKRDANVTESVPDISSIAGHGGRLGTSSFNSSIPQMDQSYQHQSGSSFISFASTSKIPSSTFTNNDSTLGRSGSGVRDGISTPIARVQTTPLIRYPTTQTASVQNIADVISDPIDELRKNIDDGLGDLFENCMFYICGVDESRMEKWRRFLNETGATRVAKFTSATNVVVVSPNQQERITIRKHLHQEDIAIVTVGWVVECVKQRKMISVEGYQWTENTADESQSSQSQLQPVRPQPLPRTSSKSTIPYGKTSGPSSTSTQVGIFSYHTYCVHCSVDQEVSDDLKEKIPLNGGKLMDDPDYAEFVIFGHSGPMHELISFDAVVTDFYIYASIGNNRFLNRSCYPLFVPLPRPPILIFNQRGFQLKCKDPFLRDRVRDIIEDNGGRIVEQLEPKDFIIMIDAEDNPPRYHSRTLDFSWIIASVSRCRLQPIDNFLYKNNTRPLSGFQRDDDLWEKCSREKNNSTQEMEVEVEDRHRVQDLPVETGNGNIGDMTTPYVNPYFPDLRKPYTMNLQLDGVSEYINNMESPARETQETLTTSRVGSILRKAVVNTGRNEDFEDEPSTCHLIRPRVPENRKTVSSTPVLVRDVNRSMRYMPMDESFADQNQEHEDLNRRYAMNPRFLLSVSNMDPQRAADLQETIMKLGGTIEREFNKDVTHLIASNMQRAPKVLCSIAAGKWCLTPDYVTKSAEVGRWLDEKSFEWTREKLLACSKKNESLKERDSRKVSENLAAVCGLWRQRVAEMPVTFSVSMENRQNGAFSDWRCVIHLDDKRAGVFSSILEAGGAIVHSISEYVEVSTLKPNIVLASKEFPWNPQSAVLLKRDNIPIYVFDILYDFLIDRDNLNRTKFWHNVYMKA” the “soluble on expression in E. coli” value was “not soluble”. For “MSSTAAKKDVKSSAVPVTAVVEKKEFEEEEFEEFPVQEWAERAEGEEDDVNVWEDNWDDETHESEFSKQLKEELRKSGHQVA”, the “soluble on expression in E. coli” value was “not soluble”. In the case of “MSLTKLLLLQKIKDPDLKQIHRDFPDLELINADEMTNELVDQIEIVYGQFSHLQKGYGFSSWFGKVVPNGKSLKWVQTISAGIDFLPLDQLAKRGIMVSNMSGLHSEAISENVLAYILILNRGLKFALANQAKQSWDFNFPKIKQLQDKKILIFGTGAIGSAIAKILQAFDVEVIGVNRHGKDLKYFDRVITQEQLGDFADADYLISDMPLTTQTRGYFDSDFFSLFKKQPIFINVGRGPSVVEKDLIKALKADILSGAALDVFEHEPLASDSPLWKMENVIVTPHSSALLEHFQRDAYKIFGPNLKSYLANGEGHHHHHH”, the “soluble on expression in E. coli” value is reported as “not soluble”. For “MDQKTRIVAAVIKGVKLPPRFRLRLLKEDPVRLELSLTPAYGKDPVTVGLVESLDLVARRDREGRIPRDLQGTWDWTVRHGKVSTGGWNPYLKEALQTMFETGLPAIVFEELTGEEYHPVDGTRHVR”, the “soluble on expression in E. coli” value was “not soluble”. For “MKINRKGGLFLLMFLFLLTGCWDRRELEHVLFINTLGIDFKDNHYIIYPQFINFTNMAKQEGPANRNYSPAYIGKGEGKLLYDAAFDFYKSSQQKVSWEHIKSIVVTERFLKNGNLNQLNDFLSRFFQFRNTMWVFGTKEPLENILATNNIFNISSLYTIMNLPQETIRQSASVDPLRLYTFRSNYYEPGMTTRIPFLATTTEHWKQGHKAFWMLEFNEYGCIAAKSYVNHLNDSDIAGVRWTNKNTNRAPLLLKVKNRAIGELILKKPKIDTKVSIEKGKPHIVMNISLEGDIYQLMKPMPVHKVKKTLRISLKKK”, the “soluble on expression in E. coli” value was “not soluble”. With “MAHHHHHHMDKISPEILAARAKLKEKMGGNLRQIGGKGSARRKIKKVHKNSMSNEKKINLILKKIGASYFGDVDEICVYKAGDTYMEFKRPKLSASLQSNTYVVTGKFTEQKIDINKIFEGLKGNKNVDMNLLEKIKNDPNIKNLLNKENNGNAKKEEGAQEAADVPDLVENFEEVSKEEQK” the “soluble on expression in E. coli” value was “soluble”. In the case of “MAHHHHNSGPLEFTVSANTNPATDAVRESILANPGFGKYYTDHMVSIDYTVDEGWHNAQVIPYGPIQLDPSAIVLHYGQEIFEGLKAYRWADGSIVSFRPEANAARLQSSARRLAIPELPEEVFIESLRQLIAVDEKWVPPAGGEESLYLRPFVIATEPGLGVRPSNEYRYLLIASPAGAYFKGGIKPVSVWLSHEYVRASPGGTGAAKFGGNYAASLLAQAQAAEMGCDQVVWLDAIERRYVEEMGGMNLFFVFGSGGSARLVTPELSGSLLPGITRDSLLQLATDAGFAVEERKIDVDEWQKKAGAGEITEVFACGTAAVITPVSHVKHHDGEFTIADGQPGEITMALRDTLTGIQRGTFADTHGWMARLN”, the “soluble on expression in E. coli” value is reported as “soluble”. In the case of “MGSDKIHHHHHHMKLLLTSGGIQNDSQRRALVDLLGKPIEEAHALCIPTAVYGMKEGPYHAYLFITGTGSTPMCELGFQSVGVLELTALPILDESLWVPLVEQADVLLVNGGDPLFLNYWMKKSGLADRLPSLKAVYVGLSAGSMVLTPRIGHAFVEWTAPHTTTDETLGLVEFSIFPHLDHELLPENTLDEAVKWAADLTGPSYAIDDQTAIQVVDGVVKVISEGHWKRFD”, the “soluble on expression in E. coli” value is reported as “not soluble”. With “MGSDKIHHHHHHESSFLNLSDPNYFTESNFWKDKADAESALAAAYSPIKGAMYGYFGAFDGWLNLNGRGDDIYTIKGEEVPMWNIANFLNSPSTGNDPYGALYSGIQRANIVLRYIDQIPASGITEEDRSMIKGEALFLRGYQYFLLVNNYKEVPLRLIPSNEDETNKAAATEAALWAQVEEDLDNAIKCNLPVERSTAKERITKGAAIAMLGKVYATQHKYPEAKQLLGTLLKAPYSYELMDNFEKNFTNEEEFNKESVFELAYSPDGDYSWSNESGICLGCYIPQFIGPVKSGGWAKLMPNSLIVGEFTKETRPSDADTKFDKRMYASLFFDAANYGDKVPNEKWYGNNYSMDDLWEGNEGKMAGGAPSFNVNGTAGKFLIKKNTAYYVDDKAPDNMGNKEGRSSNLRVMRFAEVLLLYAEACAKTNDPDGANYALKQIRQRAGLTEKTFAQAELMNEIEHQCLLEFFAEGHRFDDLKRWYSPSEIQLIFKANGKQGAENFQEKHLYYPIPTSELNNNTAMEQTSLWK” the “soluble on expression in E. coli” value was “not soluble”. In the case of “MSLAGEVWLQTHHPDHPLLQTLINGGYHTFANTELQQRQAAGLPPFAHLALLRAEAKDTTSTQQFLATVRKHIPIDNAVECYGPMSAPMPRRAGYERYQLLLSSSQRNTLHRTLNVLIPAIHALPEARRVRWSLDVDPVDLYEGHHHHHH”, the “soluble on expression in E. coli” value is reported as “not soluble”.
